The target of this test is T1, 人CD99蛋白 (组织切片中表达) (human, UniProt P14209 23-185).
T1 construct: whole, on cells
T1 sequence (looked up): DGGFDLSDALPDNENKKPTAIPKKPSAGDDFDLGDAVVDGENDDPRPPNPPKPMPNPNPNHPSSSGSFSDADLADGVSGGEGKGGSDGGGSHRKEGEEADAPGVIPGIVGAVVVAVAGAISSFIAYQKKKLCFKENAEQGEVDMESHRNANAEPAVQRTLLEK
Description: IHC on 8 ovarian granulosa cell tumours and 8 primitive neuroectodermal tumours.

Experimental findings from patent publication CN113929783A (FUZHOU MAIXIN BIOTECHNOLOGY DEV CO LTD, dated 2022) are described below.

B1: 抗CD99蛋白单克隆抗体(10D2A10F9) (antibody, V domains shown)
VH: EVQLQQSGAELVKPGASVKLSCTASGFNIKDTYMHWVKQRPEQGLEWIGRIDPANGNTKYDPKFQGKATITADTSSNTAYLQLSSLTSEDTAVYYCGRRGFAYWGQGTLVTVSA
VL: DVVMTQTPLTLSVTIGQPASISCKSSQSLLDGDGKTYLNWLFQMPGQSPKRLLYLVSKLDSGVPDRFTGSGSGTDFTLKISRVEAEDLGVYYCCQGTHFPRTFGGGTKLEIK
notes: also called CGMCC NO.22316
For B1, the binding result was “binds”.
